Measurements published in the nanobody polyreactivity screen of Harvey et al. (2022).

Assay: yeast display, Sf9 membrane polyspecificity reagent, FACS + sequencing; frameworks hold sequencing errors
In short: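 Polyreactivity labels are assigned by the sorting gate from which each nanobody was recovered. The gates were low and high (top ~1%), set on anti-HA fluorescence for expression and streptavidin fluorescence for reagent binding. Before sorting, galactose-induced (36–48 hours) yeast display cells were stained for 1 hour at 4 °C with 10% biotinylated, detergent-solubilized Sf9 membrane reagent.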

| Sequence | polyreactivity (PSR sort gate) |
| --- | --- |
| QVQLVESGGGLVQAGGSLRLSCAASGSIFPYNVMGWYRPAPGQERELVAANTTGGRTNYADSVKGRFTISRDNAKNTVYLQMNSLKPEDTAVYYCAARYGYYDSRRWYYYSGQGTQVTVSS | high polyreactivity |
| QVQLVESGGGLVQAGGSLRLSCAASGRTFRYYAMGWYRQAPGKERELVAAITSGGSTYYADSVKGRFTISRDNAKNTVYLQMNSLKPEDTAVYYCNAFFATGVDYWGQGTQVTVSS | high polyreactivity |
| QVQLVESRGGLVQAGGSLRLSFAASGSIFTPYTMGWDRPAPGKERELVAAITGSAGSTYYADSVKGRFTISRDNAKNTVYLQMNSLKPEDTAVYYCAAAVWGVYQWYYYWGQGTQVTVSS | high polyreactivity |
| QVQLVESGGGLVQAGGSLRLSCAASGGIFEANVMGWYRQAPGKERELVAAITSGGSTNYADSVKGRFTISRDNAKNTVYLQMNSLKPEDTAVYYCAADRPDGWVDYWGQGTQVTVSS | low polyreactivity |
| QVQLVESGGGLVQAGGSLRLSCAASGRIFGFYAMGWSRQAPGKERELVPGITGSGDGTYADSVKGRFTISRDNAKNTVYLQMNSLKPEDTAVYYCAADYAVGKHWRYGTYRGHYWGQGTQVTVSS | low polyreactivity |
| QVQLVESGGGLVQAGGSLRLSCAASGLTFALYAMGWYRQAPGKERELVAAITGSGGSTYYADSVKGRFTISRDTAKNSVYLQMNSLKPEDTAVYYCNKLFYRWRIVDKYYYCGQGTQVTVSS | high polyreactivity |
| QVQLVESGGGLVQAGGSLRLSCAASGRTFSGYAMGWYRQAPGKERELVAGITWNGGRTYYADSVKGRFTISRDNAKNTVYLQMNILKPDDTAVYYCYKLGAVYPKYGYWGQGTQVTVSS | high polyreactivity |
| QVQLVESGGGLVQAGGSLRLSCAASGRIFSRNAMGWYRQAPGKERELVAAITWRGGNTYYAHSVKGRFTISRDNAKNTVYLQMNSLKPEDTAVYYCAADYLRWAGRYFSWDYDYWGQGTQVTVSS | high polyreactivity |
| QVQLVESGGGLVQAGGSLRLSCAASGFTFSHYAMGWYRQAPGKEREVVADISRRGGRTYYADSVKGRFTISRDNAKNTVSLQMNSLKPEDTAVYYCAAPDESYSVWRLDGLDYWGQGTQVTVSS | high polyreactivity |
| QVQLVESGGGLVQAGGRLRLSCAASGIIFTPYAMGRYRQAPGKERELVAAISWIGGRTYYADSVKGRFTISRDKAKNTVYLQMNSLKPEDTAVYYCAASYRAWSGNYWGQGTQVTVSS | high polyreactivity |
| QVQLVESGGGLVQAGGSLRLSCAASGRTFSIYAMGLYRQAPGKERELVAAISNGGRTKYADSVKGRFTISRDNAKNTVYLQMNSLKPEDTAVYYCAAETWYVAYGYWGQGTQVTVSS | high polyreactivity |
| QVQLVESGGGLVQAGGSLRLSCAASGFTFPDYAMGWYRQAPGKERELVAAITSSGGSTYYADSVKGRFTISRDNAKNTVYLQMNSLKPEDTAVYYCNAYISDDRYWSPAIEEDYWGQGTQVTVSS | high polyreactivity |
| QVQLVESGGGLVQAGGSLRLSCAASGRIFSRYAMGWYRQAPGKERELVATISSGGGTYYADSVKGRFTISRDTAKNTVYLQMNSLKPEDTAVYYCAAASYSGHGRYDDWGQGTQVSVSS | high polyreactivity |
| QVQLVESGGGIVQAGGSLRLSCAASGSNFYANPMGWYRQAPGKERELVAAITRSGAGTYYADSVKGRFTISRDNAKNTVYLQMNSLKPEDTAVYDCAKRTKTPTGYDWGGYDYWGQGTQVTVSS | high polyreactivity |
| QVQLVESGGGLFQAVGSLRLSCAASGLFFIKYTMGWYRQAPGKERELFAVISGSGGSTYYADSVKGRFTISRDNAKNTVYLQMNSLKPEDTAVYYCAARSYALGYGGGYWGQGTQVTVSS | high polyreactivity |
| QVQLVESGGGLVQAGGSLRLSCAASGSIFSINTMVWYRLAPGKERELVAAISRTGGSTYYADSVKGRFTNSRDNAKNTVYLQMNSLKPEDTAVYYCGKDRRRSTYEYWGQCTQVTVSS | high polyreactivity |
| QVQLVESGGGLVQAGGSLRLSCAASGYIFSDNTMGWYRQAPGKERELVAVITSGTSTSYADSVKGRFTISRDNAKNTVYLQMNSLKPEDTAVYYAARTGQYKTYGEYDYWGQGTQVTVSS | low polyreactivity |
| QVQLVESGGGLVQAGGSLRLSCAASGSIYGRNAMGWYRQAPGKERELFAAISSSGGRTYYADSVKGRFTISRDNAKNTVYLQMNSLKPEDTAVYYCAADASYARYYSQYDYWGQGTQVTVSS | high polyreactivity |
| QVQLVESGGGLVQAGGSLRLSCAASGRTISVYGMGWSRQAPGKERELVASITWRGGTTYYADSVKGRFTISRDNAKNSVYLQMNRLKPEDTAVYYCAAYWPYTTYRYRYDYWGQGTQVTVSS | high polyreactivity |
| QVQLVESGGGLVQAGGSLRLSCAASGFTFTSNAMGWYRQAPGKEREFVADISNIGGDTTYADSVKGRFTISRDNAKNTVYLQMNSLKPEDTAVYYCNADFAFIENDYWGQGTQVTVSS | low polyreactivity |
| QVQLVESGGGLVQAGGSLRLSCAASGFILYFNAMGWYRQAPGKERELVAAITTDGGSTYYADSVKGRFTISRDNAKNTVYLQMNSLKPEDTAVYYCAADASTWYTEEYWGQGTQVTVSS | low polyreactivity |
| QVQLVESGGGLVQAGGSLRLSCAASGRTLNYNAMGWYRQAPGKERELVAAITSSGRTYYADSVKGRFTISRDNAKNTVFLQMNSLKPEDTAVYYCAASPYGRSILVRYGYWGQGTQVTVSS | high polyreactivity |

| Sequence | polyreactivity (PSR sort gate) |
| --- | --- |
| QVQLVESGGGLVQAGGSLRLSCAASGFTCYIYAMGWYRQAPGKERELVAGITSGGTNYADSVKGRFTISRDNAKNTVYLQINSLKPEDTAVYYCATDYYDDVTIGYDYWGQGTQVTFSS | low polyreactivity |
| QVQLVESGGGLVQAGGSLRLSCAASGSTFKAYVMGWYRQAPGKERELVAVISRSGGTTYYADSVKGRFTISRDNAKNTVYLQMNSLKPEDTAVYYCAAQWRYQYPESLESYYWGQGTQVTVSS | high polyreactivity |
| QVQLVESGGGLVQAVGSLRLSSAASGFIFWYYAMGWYRQAPGKERELVAAISSGGGTNYADSVKGRFTISRDNAKNTVYLQMNSLKPEDYAVYYCAAYGPLTGYDYWGQGTQVTVSS | low polyreactivity |
| QVQLVESGGGLVQAGGSLRLSCAASGTTISAYDMGRYRQAPGKEREMVAAITWIGGNTYYADSVKGRFTISRDNAKNTVYLQMNSLKPEDTAVYYCAAEEVPYDRDMDYWGQGTKVTVSS | low polyreactivity |
| QVQLVESGGGLVQAGGSVRLSCAASGSTFYHYALGWYRQAPGKERELVAAISWYGGSTYYADSVKGRFTISRDNAKNTVYLQMNSLKPEDTAVYYCAARGRARQRTSFEYWGQGTQVTVSS | high polyreactivity |
| QVQLVESGGGLVQAGGSLRLSCAASGFIFTWYAMGWYRQAPGKEREVVAGISRSGGRTYYADSVKGRFTISRDNAKNTVYLQMNSLKPEDTAVYYCNAVLVGYRPYREFDHWGQGTQVTVSS | high polyreactivity |
| QVQLVESGGGLVQAGGSLRLSCAASGSTISFLIMGWYRQAPGKERELVAAISRSGGRTYYADSVKGRFTISRDNAKNTVYFQMNSLKPEDTAVYYCAADYVSVDRIRYGYWGQGTQVTVSS | high polyreactivity |
| QVQLVESGGGLVQAGGSLRISCAASGRIFRYYAMGWYRQAPGKERELVAAISNSGGRTYYADSVKRRFTISRDNAKNSVYLQMNSLKPEDTAVYYCKKAHSYRGVSDSDMGYWGQGTEVTVSS | high polyreactivity |
| QVQLVESGGGLVEAGGSLRLSCAASGFTFGYYAMGWYRPAPGKERELVAAITNGGRTNYAYSVKGRFTISRDNAKNTVYLQMNSLKPEDTAVYFCATDHYWSREVYWGQGTQVTVSS | low polyreactivity |
| QVQLVESGGGLVQAGGSLRLRCAASGGIINWYAMGWYRQAQGKERELVAAISWRTTSTYYADSVKGRFTISRDTAKNTVYLQMNCLKPEDTAVYYCYASGEVLAAVVTYDYWGQGTQVTVSS | low polyreactivity |
| QVQLVESGGGLVQAGGSLRLSCAPSGGIYLYYVMGWYRQAPGKERELVADISGDDSTNYADSVKGRFTISRDNAKNTVYLQMNSLKPEDTAVYYCAAVPGLFYLPYEYWGQGTQVTVSS | low polyreactivity |
| QVQLVESGGGIVQAGGSLRLSCAASYYDMGWYRQAHGKERELVASISSGGSTNYADSVKGRFTISRDNAKNTVYLQMNSLKPEVTAVYYCAAVVADGVWVKIADEYWGQGTQVTVSS | low polyreactivity |
| QVQLVESGGGLVQAGGSLRLSCAASGRIFQRNAMGWYRQAPGKEREFVAAITKSGGGTYADSVKGRFTISRDNAKNTVYLQMISLKPEDTAVYYCNVVPVWRPYSLINWQKHFGYWGQGTQVTVSS | high polyreactivity |
| QVQLVESGGCLVQAGGSLRLSCAASGSIFPPYAMGWYIPAPGKERELVAAISRRGGSTYYADSVKGRFTISRDNAKNTVYLQMNSLKPEDTAVYYCAARGGQMEYWGQGTQVTVSS | high polyreactivity |
| QVQLVESGGGLFQAGGSHRLSCAASGSTFRVYAMGWYRHAPGKERELVADISRSVTRTYYADSVKGRFTISRDNSKNTFYLQMNSLIPEETAVYYCAAVSYYRRWQTAYYSWGQGTQVTVSS | high polyreactivity |
| QVQLVESGVGLVQAGGSLRLSCAASGSIITPYAMGWYRQAPGKERELVAAITSGGSTYADSVKGRFTISRDNAKNTVYLQMNSLKPEDTAVYYCAADRSYVYAGADMYYWGQGTQVTVSS | low polyreactivity |
| QVQLVESGGGLVQAGGSLRLSCAASGSTFSWNTMGWYRQAPGNERELVAAINSGGSTYYADSVKGRFTISRDNAKNTVYLQMNSLIPEDTAVYYCASRTKYYGRFDYWGQGTQVTVSS | low polyreactivity |
| QVQLVESGGGLVQEGGSLRLSCAASGGIFGEYDMGGYRQAPGKERELVAAINWSGGSTYYADSVKGRFTISRDNAKNSVYLQMNSLKPEDTAVYYSAADRGYPRKVDYWGQVTQVTVSS | low polyreactivity |
| QVQLVESGGGVGQAGGSLRLSCAASGYTFPDYAMGWYRQAPGKERELFAAIRSGGGTNYADSVKGRFTISRDNAKNTVYLLMNSLQPVDTAVYYSAKEWAGGLYDYWGQGTKVTVSS | low polyreactivity |
| QVQLVESGGGLVQAGGSLRLSCAASGRIFDLYTMGWYRQAPGKERELVAAIRWSDGSTYYADSVKGRFTISRDNAKNTVYLQMNSLKPEDTAVYYCARDADPNIGGYYYWGQGTQVTVSS | low polyreactivity |
| QVQLVESGGGLVQAGGSLRLSCAASGFIFRSNAMGWYRQAPGKEREFVAAISSRGGSTTYADSVKGRFTISRDNAKNSVYLQMNSLKPEDTAVYYCARDWYYYPQYRQRYYYWGQGTQVTVSS | high polyreactivity |
